Test [1] deals with P. aeruginosa PAO1.lux association with A549 cells. The test can be described thus: Cell attachment assay, PAO1.lux to A549 cells. It counts as cell-based, Pseudomonas aeruginosa. The settings on record: MOI of 10, FIG. 4, FIG. 9B. As to the method: Anti-Psl antibodies were added to a confluent monolayer of A549 cells (an adenocarcinoma human alveolar basal epithelial cell line) grown in opaque 96-well plates (Nunc Nunclon Delta). Log-phase luminescent P. aeruginosa PAO1 strain (PAO1.lux) was added at an MOI of 10. After incubation of PAO1.lux with A549 cells at 37° C. for 1 hour, the A549 cells were washed, followed by addition of LB+0.5% glucose. Bacteria were quantified following a brief incubation at 37° C. as performed in the OPK assay described in Example 2. Measurements from wells without A549 cells were used to correct for non-specific binding.

In test [2] the test system is P. aeruginosa strain 9882-80 (O11). The test can be described thus: OPK assay, strain 9882-80.lux. It counts as cell-based, Pseudomonas aeruginosa. The settings on record: strain 9882-80.lux (O11); FIG. 2B. How it is done: This example describes the evaluation of prioritized human IgG1 antibodies to promote OPK of P. aeruginosa. […] OPK assays were performed as described in (DiGiandomenico, A., et al., Infect Immun 72, 7012-7021 (2004)), with modifications. Briefly, assays were performed in 96-well plates using 0.025 ml of each OPK component; P. aeruginosa strains; diluted baby rabbit serum; differentiated HL-60 cells; and monoclonal antibody. In some OPK assays, luminescent P. aeruginosa strains, which were constructed as described (Choi, K. H., et al., Nat Methods 2, 443-448 (2005)), were used. Luminescent OPK assays were performed as described above but with determination of relative luciferase units (RLUs) using a Perkin Elmer ENVISION Multilabel plate reader (Perkin Elmer).
The ability of the WapR-004 and Cam-003 antibodies to mediate OPK activity against another clinically relevant O-antigen serotype strain, 9882-80.lux, was evaluated.

In test [3] the test system is P. aeruginosa strains PAO1, 33356, 6294, 6077. The test can be described thus: P. aeruginosa acute pneumonia model, survival. The settings on record: strain 6077 (O11) 8×10^5 or 6×10^5 CFU; 5 and 1 mg/kg; FIGS. 6E, 6F. In kind it is in vivo, BALB/c mice. As to the method: FIG. 6 (A-G): Survival rates for animals treated with anti-Psl monoclonal antibodies Cam-003 or WapR-004 in a P. aeruginosa acute pneumonia model. (A-D) Animals were treated with Cam-003 at 45, 15, and 5 mg/kg and R347 at 45 mg/kg or PBS 24 hours prior to intranasal infection with (A) PAO1 (1.6×10^7 CFU), (B) 33356 (3×10^7 CFU), (C) 6294 (7×10^6 CFU), (D) 6077 (1×10^6 CFU). (E-F) Animals were treated with WapR-004 at 5 and 1 mg/kg as indicated followed by infection with 6077 at (E) (8×10^5 CFU), or (F) (6×10^5 CFU). Animals were carefully monitored for survival up to 72 hours (A-D) or for 120 hours (E-F). (G) Animals were treated with Cam-003 at 15 mg/kg or 5 mg/kg, or R347 at 15 mg/kg 24 hours prior to intranasal infection with PAO1 (4.4×10^7 CFU), and Cam-003 at 15 mg/kg 24 hours prior to intranasal infection with PAO1ΔpslA (3×10^7 CFU). In all experiments, PBS and R347 served as negative controls. Results are represented as Kaplan-Meier survival curves; differences in survival were calculated by the Log-rank test for Cam-003 vs. R347. (A) Cam-003 (45 mg/kg—P<0.0001; 15 mg/kg—P=0.0003; 5 mg/kg—P=0.0033). (B) Cam-003 (45 mg/kg—P=0.0012; 15 mg/kg—P=0.0012; 5 mg/kg—P=0.0373). (C) Cam-003 (45 mg/kg—P=0.0007; 15 mg/kg—P=0.0019; 5 mg/kg—P=0.0212). (D) Cam-003 (45 mg/kg—P<0.0001; 15 mg/kg—P<0.0001; 5 mg/kg—P=0.0001). Results are representative of at least two independent experiments. […]

B1: WapR-004: anti-Psl antibody, VH SEQ ID NO: 11 and VL SEQ ID NO: 12 (antibody, V domains shown)
VH: EVQLLESGPGLVKPSETLSLTCNVAGGSISPYYWTWIRQPPGKGLELIGYIHSSGYTDYNPSLKSRVTISGDTSKKQFSLHVSSVTAADTAVYFCARGDWDLLHALDIWGQGTLVTVSS
VL: EIVLTQSPSSLSTSVGDRVTITCRASQSIRSHLNWYQQKPGKAPKLLIYGASNLQSGVPSRFSGSGSGTDFTLTISSLQPEDFATYYCQQSYSFPLTFGGGTKLEIK
modifications: WapR-004 VH; WapR-004 & WarR-004RAD VL
With B1, the “inhibition of association of PAO1.lux to A549 cells” value in test [1] is on record as “most active at inhibiting P. aeruginosa cell attachment to A549 lung epithelial cells”. In test [2], the OPK activity result is on record as “OPK activity extends to strain 9882-80”. In addition, in test [3], the survival result is reported as “significant concentration-dependent survival”.
